B1: unnamed (protein)
chain: MLDMPIDPVYYQLAEYFDSLPKFDQFSSAREYREAINRIYEERNRQLSQHERVERVEDRTIKGRNGDIRVRVYQQKPDSPVLVYYHGGGFVICSIESHDALCRRIARLSNSTVVSVDYRLAPEHKFPAAVYDCYDATKWVAENAEELRIDPSKIFVGGDSAGGNLAAAVSIMARDSGEDFIKHQILIYPVVNFVAPTPSLLEFGEGLWILDQKIMSWFSEQYFSREEDKFNPLASVIFADLENLPPALIITAEYDPLRDEGEVFGQMLRRAGVEASIVRYRGVLHGFINYYPVLKAARDAINQIAALLVFD
B2: unnamed (protein)
chain: MLHLVCLALLCHVARGLPTQASHNAQPVINLGYARYQGVRLEAGVDEFLGMRYASPPIGDLRFRAPQDPPANQTLQSATEYGPICIGLDEEESPGDISEDCLFINVFKPSTATSQSKLPVWLFIQGGGYAENSNANYNGTQVIQASDDVIVFVTFNYRVGALGFLASEKVRQNGDLNAGLLDQRKALRWVKQYIEQFGGDPDHIVIHGVSAGAGSVAYHLSAYGGKDEGLFIGAIVESSFWPTQRTVSEMEFQFERFVNDTGCSSARDSLECLREQDIATIQKGNTGSPFPGGSSSPLPDWYFLPVTDGSLVPDELYNAFDAGNFIKVPVLVGDDTDEGSNFAYNASSSADVSRFFKNNYPNLTSQQLNEINQVYPRGKLLPRHAAYFGASSAAYGDATFTCPGNHVASSAARYLPNSVWNYRVNIIDESNIAGGIGVPHTFELPAIFGAGSTGTLSSDSSYLTYNAAIIPVTMHYFISFVQTLNPNTYRYATAPEWNTWGNGQRLRLQTNDTAMEAVPESSLQDCAFWKSLTVPMEV
B3: unnamed (protein)
chain: MLPLWTLSLLLGAVAGKEVCYERLGCFSDDSPWSGITERPLHILPWSPKDVNTRFLLYTNENPNNFQEVAADSSSISGSNFKTNRKTRFIIHGFIDKGEENWLANVCKNLFKVESVNCICVDWKGGSRTGYTQASQNIRIVGAEVAYFVEFLQSAFGYSPSNVHVIGHSLGAHAAGEAGRRTNGTIGRITGLDPAEPCFQGTPELVRLDPSDAKFVDVIHTDGAPIVPNLGFGMSQVVGHLDFFPNGGVEMPGCKKNILSQIVDIDGIWEGTRDFAACNHLRSYKYYTDSIVNPDGFAGFPCASYNVFTANKCFPCPSGGCPQMGHYADRYPGKTNDVGQKFYLDTGDASNFARWRYKVSVTLSGKKVTGHILVSLFGNKGNSKQYEIFKGTLKPDSTHSNEFDSDVDVGDLQMVKFIWYNNVINPTLPRVGASKIIVETNVGKQFNFCSPETVREEVLLTLTPC
B4: unnamed (protein)
chain: MWLLPLVLTSLASSATWAGQPASPPVVDTAQGRVLGKYVSLEGLAQPVAVFLGVPFAKPPLGSLRFAPPQPAEPWSFVKNTTSYPPMCCQDPVVEQMTSDLFTNGKERLTLEFSEDCLYLNIYTPADLTKRGRLPVMVWIHGGGLVLGGAPMYDGVVLAAHENVVVVAIQYRLGIWGFFSTGDEHSRGNWGHLDQVAALHWVQENIANFGGDPGSVTIFGESAGGESVSVLVLSPLAKNLFHRAISESGVALTVALVRKDMKAAAKQIAVLAGCKTTTSAVFVHCLRQKSEDELLDLTLKMKFLTLDFHGDQRESHPFLPTVVDGVLLPKMPEEILAEKDFNTVPYIVGINKQEFGWLLPTMMGFPLSEGKLDQKTATSLLWKSYPIANIPEELTPVATDKYLGGTDDPVKKKDLFLDLMGDVVFGVPSVTVARQHRDAGAPTYMYEFQYRPSFSSDKKPKTVIGDHGDEIFSVFGFPLLKGDAPEEEVSLSKTVMKFWANFARSGNPNGEGLPHWPMYDQEEGYLQIGVNTQAAKRLKGEEVAFWNDLLSKEAAKKPPKIKHAEL

Substrate in the first data set: p-NP-C4
Conditions: pH 7; 25 °C.
B1: the Km (as a rule, the concentration of substrate that gives half-maximal velocity) came out at 40 µM; the catalytic constant (kcat) – broadly, the maximal rate divided by the concentration of active sites – was found to be 140 s⁻¹; the kcat/Km (as a rule, the second-order rate constant that governs catalysis at low substrate concentration) is 3.5e+06 M⁻¹ s⁻¹.

Turning to B4, the Km was 80 µM, the kcat amounted to 18 s⁻¹ and the kcat/Km is 225000 M⁻¹ s⁻¹.

Substrate in the next data set: triacetin
Conditions: pH 7; 25 °C.
As for B1, the Km stood at 10000 µM, the kcat came to 40 s⁻¹ and the kcat/Km stood at 4000 M⁻¹ s⁻¹.

In the case of B2, the Km turned out to be 15000 µM, the kcat stood at 265 s⁻¹ and the kcat/Km came out at 17700 M⁻¹ s⁻¹.

With B3, the Km is 190000 µM, the turnover number (kcat) stood at 8 s⁻¹ and the catalytic efficiency (kcat/Km) was determined as 42.1 M⁻¹ s⁻¹.

Turning to B4, the Km stood at 3000 µM, the kcat stood at 60 s⁻¹ and the kcat/Km turned out to be 20000 M⁻¹ s⁻¹.

Substrate in the next data set: tributyrin
Conditions: pH 7; 25 °C.
B1: the Km worked out at 50 µM, the turnover number (kcat) worked out at 95 s⁻¹ and the kcat/Km was 1.9e+06 M⁻¹ s⁻¹.

In the case of B3, the Km was 400 µM, the kcat was found to be 7890 s⁻¹ and the kcat/Km was found to be 1.97e+07 M⁻¹ s⁻¹.

Regarding B4, the Michaelis constant (Km) stood at 50 µM, the kcat turned out to be 70 s⁻¹ and the kcat/Km was found to be 1.4e+06 M⁻¹ s⁻¹.

Substrate in the next data set: tripropionin
Conditions: pH 7; 25 °C.
For B1, the Km came out at 300 µM, the kcat worked out at 110 s⁻¹ and the catalytic efficiency (kcat/Km) is 367000 M⁻¹ s⁻¹.

In the case of B2, the Km turned out to be 350 µM, the kcat turned out to be 60 s⁻¹ and the kcat/Km was 171000 M⁻¹ s⁻¹.

With B3, the Km stood at 8000 µM, the kcat was 3320 s⁻¹ and the kcat/Km was determined as 415000 M⁻¹ s⁻¹.

For B4, the Km came to 300 µM, the kcat turned out to be 50 s⁻¹ and the kcat/Km worked out at 167000 M⁻¹ s⁻¹.

Substrate in the next data set: vinyl acetate
Conditions: pH 7; 25 °C.
As to B1, the Km was 4000 µM, the kcat was found to be 50 s⁻¹ and the kcat/Km was determined as 12500 M⁻¹ s⁻¹.

In the case of B2, the Km stood at 3000 µM, the kcat was found to be 400 s⁻¹ and the kcat/Km came to 133000 M⁻¹ s⁻¹.

B3: the Michaelis constant (Km) was determined as 315000 µM, the kcat stood at 170 s⁻¹ and the catalytic efficiency (kcat/Km) is 540 M⁻¹ s⁻¹.

For the protein B4, the Km turned out to be 4000 µM, the kcat was found to be 315 s⁻¹ and the kcat/Km came to 78800 M⁻¹ s⁻¹.

Substrate in a further data set: vinyl butyrate
Conditions: pH 7; 25 °C.
As for B1, the Km was determined as 2500 µM, the kcat stood at 210 s⁻¹ and the kcat/Km was 84000 M⁻¹ s⁻¹.

In the case of B2, the Km amounted to 2000 µM, the kcat stood at 25 s⁻¹ and the kcat/Km was found to be 12500 M⁻¹ s⁻¹.

As to B3, the Km is 25000 µM, the kcat was found to be 625 s⁻¹ and the kcat/Km amounted to 25000 M⁻¹ s⁻¹.

For the protein B4, the Km amounted to 2000 µM, the kcat came out at 460 s⁻¹ and the kcat/Km is 230000 M⁻¹ s⁻¹.

Substrate in the next data set: vinyl propionate
Conditions: pH 7; 25 °C.
As to B1, the Km was determined as 7000 µM, the kcat worked out at 200 s⁻¹ and the specificity constant (kcat/Km) was found to be 28600 M⁻¹ s⁻¹.

On to B2, for which the Km was determined as 3000 µM, the catalytic constant (kcat) was 160 s⁻¹ and the kcat/Km was determined as 53300 M⁻¹ s⁻¹.

B3: the Km was 75000 µM, the kcat was 800 s⁻¹ and the kcat/Km was 10700 M⁻¹ s⁻¹.

As for B4, the Km was found to be 5000 µM, the kcat was determined as 295 s⁻¹ and the kcat/Km came out at 59000 M⁻¹ s⁻¹.

Substrate in the next data set: vinyl laurate
Conditions: pH 7; 25 °C.
As to B3, the Km was 4000 µM, the kcat was determined as 375 s⁻¹ and the kcat/Km stood at 93800 M⁻¹ s⁻¹.

The values above are taken from the PETadex activity labels (doi:10.1016/j.bbalip.2005.11.003).
